According to patent EP2028187A1 (BOARD OF REGENTS, THE UNIVERSITY OF TEXAS SYSTEM, dated 2009):
Square brackets hold non-standard residues; d marks the D form. Ends that are not written are not given here. pY = N[C@@H](Cc1ccc(OP(=O)(O)O)cc1)C(=O)O

T1: GST-β3cyto (GST fusion protein of the integrin β3 cytoplasmic domain) (UniProt O54890)
T1 sequence: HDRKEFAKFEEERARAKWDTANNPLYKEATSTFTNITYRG

B1: CPRECESIC (SEQ ID NO:123) soluble peptide (peptide)
peptide: CPRECESIC
modifications: disulfide (positions not given here); also: mixture of disulfide isomers and dimers
B2: Fyn-phosphorylated phage displaying … (SEQ ID NO:116) (peptide)
peptide: RAIL[pY]RLAN
modifications: also: tyrosine phosphorylated in vitro with Fyn kinase
B3: Fyn-phosphorylated phage displaying … (SEQ ID NO:121) (peptide)
peptide: TLRK[pY]FHSS
modifications: also: tyrosine phosphorylated in vitro with Fyn kinase
B4: VISY peptide (…, SEQ ID NO:112) (peptide)
peptide: VVISYSMPD
B5: phage displaying … (SEQ ID NO:96) (peptide)
peptide: GLDTYRGSP
B6: phage displaying … (SEQ ID NO:95) (peptide)
peptide: YDWWYPWSW
B7: phage displaying … (SEQ ID NO:104) (peptide)
peptide: CLRQSYSYNC
B8: phage displaying … (SEQ ID NO:94) (peptide)
peptide: CARLEVLLPC
B9: phage displaying … (SEQ ID NO:99) (peptide)
peptide: KVSWYLDNG
B10: phage displaying … (SEQ ID NO:100), selected on β3 (peptide)
peptide: SDWYYPWSW
B11: phage displaying … (SEQ ID NO:93) (peptide)
peptide: CEQRQTQEGC
B12: phage displaying … (SEQ ID NO:98) (peptide)
peptide: YEWWYWSWA
B13: phage displaying CFQNRC (SEQ ID NO:102) (peptide)
peptide: CFQNRC
B14: phage displaying … (SEQ ID NO:97) (peptide)
peptide: SDNRYIGSW
B15: phage displaying CNLSSEQC (SEQ ID NO:103) (peptide)
peptide: CNLSSEQC
B16: phage displaying … (SEQ ID NO:111) (peptide)
peptide: KQFSYRYLL
B17: phage displaying … (SEQ ID NO:105) (peptide)
peptide: CYIWPDSGLC
B18: phage displaying … (SEQ ID NO:109) (peptide)
peptide: CWDQNYLDDC
B19: phage displaying … (SEQ ID NO:110) (peptide)
peptide: DEEGYYMMR
B20: phage displaying … (SEQ ID NO:106) (peptide)
peptide: CEPYWDGWFC
B21: phage displaying … (SEQ ID NO:113), selected on β5 (peptide)
peptide: SDWYYPWSW
B22: phage displaying … (SEQ ID NO:112) (peptide)
peptide: VVISYSMPD
B23: phage displaying … (SEQ ID NO:127) (peptide)
peptide: CPKVCPRECESNC
B24: phage displaying … (SEQ ID NO:126) (peptide)
peptide: CLGQCASICVNDC
B25: phage displaying … (SEQ ID NO:125) (peptide)
peptide: CYNLCIRECESICGADGACWTWCADGCSRSC

biological target: Aminopeptidase A (APA, EC 3.4.11.7) on cells (UniProt Q07075 1-957, limits assumed); test: cell-based or functional assay
Sequence (Q07075 whole entry): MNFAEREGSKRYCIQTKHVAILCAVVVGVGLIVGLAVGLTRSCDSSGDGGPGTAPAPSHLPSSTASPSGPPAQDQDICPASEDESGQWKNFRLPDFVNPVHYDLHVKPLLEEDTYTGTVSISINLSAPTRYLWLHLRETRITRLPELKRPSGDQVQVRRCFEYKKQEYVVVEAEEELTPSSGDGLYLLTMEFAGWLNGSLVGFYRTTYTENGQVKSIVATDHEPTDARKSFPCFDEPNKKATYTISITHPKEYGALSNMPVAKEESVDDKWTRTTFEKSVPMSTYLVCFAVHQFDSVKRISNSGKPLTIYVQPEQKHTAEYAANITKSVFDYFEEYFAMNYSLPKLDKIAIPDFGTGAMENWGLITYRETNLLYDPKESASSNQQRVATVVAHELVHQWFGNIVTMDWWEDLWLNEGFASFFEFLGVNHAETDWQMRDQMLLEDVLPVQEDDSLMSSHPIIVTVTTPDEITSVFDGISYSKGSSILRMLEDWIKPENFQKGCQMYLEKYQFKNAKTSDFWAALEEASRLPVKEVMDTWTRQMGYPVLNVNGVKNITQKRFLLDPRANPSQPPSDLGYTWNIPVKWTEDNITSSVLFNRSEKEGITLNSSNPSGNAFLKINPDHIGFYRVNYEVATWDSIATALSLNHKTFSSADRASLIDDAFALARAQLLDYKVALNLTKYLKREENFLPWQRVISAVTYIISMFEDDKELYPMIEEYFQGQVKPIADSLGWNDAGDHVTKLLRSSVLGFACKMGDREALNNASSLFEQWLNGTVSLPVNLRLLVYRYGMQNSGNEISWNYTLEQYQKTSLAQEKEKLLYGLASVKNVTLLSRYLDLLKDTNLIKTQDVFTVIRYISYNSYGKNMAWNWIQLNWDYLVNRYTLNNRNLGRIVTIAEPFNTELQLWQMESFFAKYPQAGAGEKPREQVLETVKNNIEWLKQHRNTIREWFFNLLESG

Binder | APA enzyme activity on SK-RC-49/APA cells (α-glutamyl-p-nitroanilide, colorimetric), IC50 [µM]
B1 | 800

biological target: T1, GST-β3cyto (GST fusion protein of the integrin β3 cytoplasmic domain); test: β3 colonies divided by BSA colonies after panning

Binder | β3 or β5/BSA
B2 | 20

biological target: T1, GST-β3cyto (GST fusion protein of the integrin β3 cytoplasmic domain); test: β3 colonies divided by GST colonies after panning

Binder | β3 or β5/GST
B2 | 1.3

biological target: GST-β5cyto (GST fusion protein of the integrin β5 cytoplasmic domain) (UniProt P18084); test: β5 colonies divided by BSA colonies after panning
Sequence (P18084 other isoform, or with tags, fused parts or gaps): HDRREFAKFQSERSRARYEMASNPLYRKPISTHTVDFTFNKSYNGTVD

Binder | β3 or β5/BSA
B3 | 7.3

biological target: GST-β5cyto (GST fusion protein of the integrin β5 cytoplasmic domain) (UniProt P18084); test: β5 colonies divided by GST colonies after panning

Binder | β3 or β5/GST
B3 | 5.6

biological target: GST-β5cyto (GST fusion protein of the integrin β5 cytoplasmic domain) (UniProt P18084); test: competition ELISA on GST-β5-coated plates, in the absence of calcium

Binder | % inhibition of Annexin V binding to GST-β5 [%]
B4 | 45

biological target: GST-β5cyto (GST fusion protein of the integrin β5 cytoplasmic domain) (UniProt P18084); test: competition ELISA on GST-β5-coated plates, in the presence of calcium

Binder | % inhibition of Annexin V binding to GST-β5 [%]
B4 | 67

biological target: T1, GST-β3cyto (GST fusion protein of the integrin β3 cytoplasmic domain); test: phage colonies recovered from β3-GST-coated wells divided by those from BSA wells

Binder | β3/BSA Ratio
B5 | 48
B6 | 163
B7 | 3.2
B8 | 18.7
B9 | 20
B10 | 157
B11 | 14
B12 | 28.1
B13 | 16
B14 | 32
B15 | 62

biological target: T1, GST-β3cyto (GST fusion protein of the integrin β3 cytoplasmic domain); test: phage colonies recovered from β3-GST-coated wells divided by those from GST wells

Binder | β3/GST Ratio
B5 | 4.1
B6 | 5.6
B7 | 2.4
B8 | 2.8
B9 | 2.1
B10 | 2.1
B11 | 4.3
B12 | 2.2
B13 | 3.1
B14 | 3.3
B15 | 2.7

biological target: GST-β5cyto (GST fusion protein of the integrin β5 cytoplasmic domain) (UniProt P18084); test: phage colonies recovered from β5-GST-coated wells divided by those from BSA wells

Binder | β5/BSA Ratio
B16 | 8
B17 | 193
B18 | 100
B19 | 29
B20 | 400
B21 | 304
B22 | 28

biological target: GST-β5cyto (GST fusion protein of the integrin β5 cytoplasmic domain) (UniProt P18084); test: phage colonies recovered from β5-GST-coated wells divided by those from GST wells

Binder | β5/GST Ratio
B16 | 4.5
B17 | 5.2
B18 | 1.5
B19 | 11.5
B20 | 3.1
B21 | 2.4
B22 | 3.8

biological target: Aminopeptidase A (APA, EC 3.4.11.7) on cells (UniProt Q07075); test: phage binding to SK-RC-49/APA cells in suspension, phage rescued and counted (not shown)
Sequence (Q07075 whole entry): as the sequence (Q07075 whole entry) above

Binder | fold enrichment relative to SK-RC-49 parental cells [fold]
B23 | 6
B24 | 6
B25 | 6

biological target: T1, GST-β3cyto (GST fusion protein of the integrin β3 cytoplasmic domain); test: colonies of Fyn-phosphorylated phage divided by those of unphosphorylated phage bound to the β3 cytoplasmic domain

Binder | Phos/Unphos
B2 | 2.8

biological target: GST-β5cyto (GST fusion protein of the integrin β5 cytoplasmic domain) (UniProt P18084); test: colonies of Fyn-phosphorylated phage divided by those of unphosphorylated phage bound to the β5 cytoplasmic domain

Binder | Phos/Unphos
B3 | 1.8
